Target: stk39_mouse Stk39 (UniProt Q9Z1W9)

effect of a mutation on the interaction: disrupting interaction
Substance: Serine/threonine-protein kinase WNK3 (Homo sapiens), Q9BYP7-2 F1337A
